Measurements as given in publication PMC4322223, “Biochemical and structural characterization of a thermostable β-glucosidase from Halothermothrix orenii for galacto-oligosaccharide synthesis” (Applied Microbiology and Biotechnology, 2014).

Legend:
Experiment in all cases: purified protein
Settings in all cases: 65 °C, 20 mM HEPES, 150 mM NaCl, pH 7.0
purified protein [1] = substrate: O=[N+]([O-])c1ccc(O[C@@H]2O[C@H](CO)[C@@H](O)[C@H](O)[C@H]2O)cc1
purified protein [2] = substrate: O=[N+]([O-])c1ccc(O[C@@H]2O[C@H](CO)[C@H](O)[C@H](O)[C@H]2O)cc1
purified protein [3] = substrate: O=[N+]([O-])c1ccccc1O[C@@H]1O[C@H](CO)[C@@H](O)[C@H](O)[C@H]1O; format: biochemical, Halothermothrix orenii
purified protein [4] = substrate: O=[N+]([O-])c1ccccc1O[C@@H]1O[C@H](CO)[C@H](O)[C@H](O)[C@H]1O; format: biochemical, Halothermothrix orenii

B1: HoBGLA (Halothermothrix orenii H 168) (protein)
chain: MAKIIFPEDFIWGAATSSYQIEGAFNEDGKGESIWDRFSHTPGKIENGDTGDIACDHYHLYREDIELMKEIGIRSYRFSTSWPRILPEGKGRVNQKGLDFYKRLVDNLLKANIRPMITLYHWDLPQALQDKGGWTNRDTAKYFAEYARLMFEEFNGLVDLWVTHNEPWVVAFEGHAFGNHAPGTKDFKTALQVAHHLLLSHGMAVDIFREEDLPGEIGITLNLTPAYPAGDSEKDVKAASLLDDYINAWFLSPVFKGSYPEELHHIYEQNLGAFTTQPGDMDIISRDIDFLGINYYSRMVVRHKPGDNLFNAEVVKMEDRPSTEMGWEIYPQGLYDILVRVNKEYTDKPLYITENGAAFDDKLTEEGKIHDEKRINYLGDHFKQAYKALKDGVPLRGYYVWSLMDNFEWAYGYSKRFGLIYVDYENGNRRFLKDSALWYREVIEKGQVEAN
notes: full length, 451 residues, GH1; pNIC28-Bsa4 N-terminal His6-TEV tag cut off with TEV protease; expressed in E. coli BL21(DE3); 53 kDa
B1 gave a Km (purified protein [1]) of 0.296 ± 0.001 mM, a kcat (purified protein [1]) of 55.2 s⁻¹ and a kcat/Km (purified protein [1]) of 187000 M⁻¹ s⁻¹. For the same protein, the Km (purified protein [2]) was 8.34 ± 0.61 mM, the kcat (purified protein [2]) was 156 s⁻¹ and the kcat/Km (purified protein [2]) was 18700 M⁻¹ s⁻¹. The Km (purified protein [3]) was 0.386 ± 0.002 mM, the kcat (purified protein [3]) was 94.6 s⁻¹ and the kcat/Km (purified protein [3]) was 245000 M⁻¹ s⁻¹. The Km (purified protein [4]) was 6.35 ± 0.8 mM, the kcat (purified protein [4]) was 288 s⁻¹ and the kcat/Km (purified protein [4]) was 45300 M⁻¹ s⁻¹.
